The target of data set [1] is T1, MR DBD (human, UniProt P08235 593-671). As to the kind of experiment: fluorescence polarization; 10 nM DNA; slight positive cooperativity; endpoint called affinity; FP: 100 mM NaCl, 20 mM Tris-HCl pH 7.4, 5% glycerol, 10 nM FAM-GRE; temperature not stated. As to conditions: protein: recombinant; tags: 6xHis (pMCSG7 vector); chain copies: 2; label: 5' 6-FAM on strand 1; blunt. (In fluorescence polarisation assays a small probe gives low polarisation when free and higher when bound to something large.)

The target in a further data set is GR DBD (UniProt P04150 417-506). Described as above. As to conditions: protein: recombinant; chain copies: 2; label: 5' 6-FAM on strand 1; blunt.
GR DBD, sequence (P04150 417-506): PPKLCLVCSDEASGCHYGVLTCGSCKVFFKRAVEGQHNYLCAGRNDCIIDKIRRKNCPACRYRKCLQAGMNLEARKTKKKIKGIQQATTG
For data set [2], the target named is T1, MR DBD. The data set can be described thus: X-ray crystallography; DBD dimer on two half sites; 2.4 A; FP: 100 mM NaCl, 20 mM Tris-HCl pH 7.4, 5% glycerol, 10 nM FAM-GRE; temperature not stated. As to conditions: protein: recombinant; tags: 6xHis (pMCSG7 vector); chain copies: 2.
Data set [3] concerns the molecule itself. As to the kind of experiment: crystal structure; MR DBD crystallised with a 17 base pair GRE DNA, 2:1 molar ratio of DNA to protein, protein at 3.0 mg/ml; hanging-drop vapor diffusion, 0.2 M sodium malonate, 12% PEG 3350; the DBD dimer is seen bound to the two DNA half sites.

B1: FAM-GRE (dsDNA)
DNA 1: CCAGAACAGAGTGTTCTGA
DNA 2: TCAGAACACTCTGTTCTGG
Usually Kd stands for the constant that tells how readily two partners part at equilibrium. With B1, the Kd in the data set with MR DBD [1] amounted to 55 nM; with GR DBD, 53 nM.

B2: GRE 17 bp (crystal) (dsDNA)
DNA 1: GTCTTGTCTCACAAGAC
DNA 2: GTCTTGTGAGACAAGAC
As to B2, in the data set with MR DBD [2], the binding result is given as “binds”.

B3: human mineralocorticoid receptor DNA binding domain (domain or fragment, UniProt P08235 593-671, looked up)
chain: STGSSRPSKICLVCGDEASGCHYGVVTCGSCKVFFKRAVEGQHNYLCAGRNDCIIDKIRRKNCPACRLQKCLQAGMNLG
notes: Cloned into pMCSG7, 'which contains a 6X-histidine tag'; Two copies of the chain form the dimer on the GRE DNA in the crystal; also called MR DBD; MR
Turning to B3, the binding result in data set [3] was “binds”.
